The source of these data is PMC8219104 (Research Square, 2021).

This assay has as its target SARS-CoV-2 spike receptor-binding domain (RBD), amino acids 333 to 529, bacteria-expressed and refolded (SARS-CoV-2, wild type (parental), UniProt P0DTC2). Put plainly: SPR. Particulars: both partners purified.

B1: Sybody Sb68 (VHH)
VHH: QVQLVESGGGSVQAGGSLRLSCAASGSISSITYLGWFRQAPGKEREGVAALITVNGHTYYADSVKGRFTVSLDNAKNTVYLQMNSLKPEDTALYYCAAAAWGYAWPLHQDDYWYWGQGTQVTVSA
On to B1, for which the Kd (commonly the equilibrium constant for the complex coming apart) is 63 nM.
